In patent US20240270846A1 (published 2024):

Target: T1, CD3 epsilon homodimer protein (UniProt P07766 23-126)
T1 construct: Construct of the homodimer protein is not described; also called CD3 (CD3 epsilon)
Assay: SPR (Biacore T200), CD3 epsilon homodimer on CM4 chip, one-arm antibody as analyte; ratio to unaltered CE115HA000;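 further: surface plasmon resonance run at 25 °C with HBS-EP+ as running buffer, CD3 epsilon homodimer attached by amine coupling, antibody passed over as analyte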

T1 sequence (P07766 23-126): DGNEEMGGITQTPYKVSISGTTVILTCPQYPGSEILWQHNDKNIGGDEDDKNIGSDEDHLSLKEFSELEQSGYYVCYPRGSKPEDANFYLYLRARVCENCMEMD

Binder | KD ratio (KD value of CE115HA000/KD value of the altered form)
CE115HA000 Y100S one-arm antibody (antibody, human IgG1, kappa, L234A L235A, N297A, name in Kabat numbering, one-arm antibody) heavy: QVQLVESGGGVVQPGRSLRLSCAASGFTFSNAWMHWVRQAPGKGLEWVAQIKAKSNNYATYYAESVKGRFTISRDDSKNSLYLQMNSLKTEDTAVYYCRYVHYGASYGVDAWGQGTTVTVSSASTKGPSVFPLAPSSKSTSGGTAALGCLVKDYFPEPVTVSWNSGALTSGVHTFPAVLQSSGLYSLSSVVTVPSSSLGTQTYICNVNHKPSNTKVDKKVEPKSCDKTHTCPPCPAPEAAGGPSVFLFPPKPKDTLMISRTPEVTCVVVDVSHEDPEVKFNWYVDGVEVHNAKTKPREEQYASTYRVVSVLTVLHQDWLNGKEYKCKVSNKALPAPIEKTISKAKGQPREPQVYTLPPSRCELTKNQVSLSCAVKGFYPSDIAVEWESNGQPENNYKTTPPVLDSDGSFFLVSKLTVDKSRWQQGNVFSCSVMHEALHNHYTQKSLSLSPDYKDDDDK EPKSSDKTHTCPPCPAPELLGGPSVFLFPPKPKDTLMISRTPEVTCVVVDVSHEDPEVKFNWYVDGVEVHNAKTKPREEQYNSTYRVVSVLTVLHQDWLNGKEYKCKVSNKALPAPIEKTISKAKGQPREPQVCTLPPSRDELTKNQVSLWCLVKGFYPSDIAVEWESNGQPENNYKTTPPVLDSDGSFFLYSKLTVDKSRWQQGNVFSCSVMHEALHNRYTQKSLSLSP light: DIVMTQSPLSLPVTPGEPASISCRSSQSLVHSNRNTYLHWYQQKPGQAPRLLIYKVSNRFSGVPDRFSGSGSGTDFTLKISRVEAEDVGVYYCGQGTQVPYTFGQGTKLEIKRTVAAPSVFIFPPSDEQLKSGTASVVCLLNNFYPREAKVQWKVDNALQSGNSQESVTEQDSKDSTYSLSSTLTLSKADYEKHKVYACEVTHQGLSSPVTKSFNRGEC | 0.7
CE115HA000 Y100K one-arm antibody (antibody, human IgG1, kappa, L234A L235A, N297A, name in Kabat numbering, one-arm antibody) heavy: QVQLVESGGGVVQPGRSLRLSCAASGFTFSNAWMHWVRQAPGKGLEWVAQIKAKSNNYATYYAESVKGRFTISRDDSKNSLYLQMNSLKTEDTAVYYCRYVHYGAKYGVDAWGQGTTVTVSSASTKGPSVFPLAPSSKSTSGGTAALGCLVKDYFPEPVTVSWNSGALTSGVHTFPAVLQSSGLYSLSSVVTVPSSSLGTQTYICNVNHKPSNTKVDKKVEPKSCDKTHTCPPCPAPEAAGGPSVFLFPPKPKDTLMISRTPEVTCVVVDVSHEDPEVKFNWYVDGVEVHNAKTKPREEQYASTYRVVSVLTVLHQDWLNGKEYKCKVSNKALPAPIEKTISKAKGQPREPQVYTLPPSRCELTKNQVSLSCAVKGFYPSDIAVEWESNGQPENNYKTTPPVLDSDGSFFLVSKLTVDKSRWQQGNVFSCSVMHEALHNHYTQKSLSLSPDYKDDDDK EPKSSDKTHTCPPCPAPELLGGPSVFLFPPKPKDTLMISRTPEVTCVVVDVSHEDPEVKFNWYVDGVEVHNAKTKPREEQYNSTYRVVSVLTVLHQDWLNGKEYKCKVSNKALPAPIEKTISKAKGQPREPQVCTLPPSRDELTKNQVSLWCLVKGFYPSDIAVEWESNGQPENNYKTTPPVLDSDGSFFLYSKLTVDKSRWQQGNVFSCSVMHEALHNRYTQKSLSLSP light: DIVMTQSPLSLPVTPGEPASISCRSSQSLVHSNRNTYLHWYQQKPGQAPRLLIYKVSNRFSGVPDRFSGSGSGTDFTLKISRVEAEDVGVYYCGQGTQVPYTFGQGTKLEIKRTVAAPSVFIFPPSDEQLKSGTASVVCLLNNFYPREAKVQWKVDNALQSGNSQESVTEQDSKDSTYSLSSTLTLSKADYEKHKVYACEVTHQGLSSPVTKSFNRGEC | 0.93
CE115HA000 Y100L one-arm antibody (antibody, human IgG1, kappa, L234A L235A, N297A, name in Kabat numbering, one-arm antibody) heavy: QVQLVESGGGVVQPGRSLRLSCAASGFTFSNAWMHWVRQAPGKGLEWVAQIKAKSNNYATYYAESVKGRFTISRDDSKNSLYLQMNSLKTEDTAVYYCRYVHYGALYGVDAWGQGTTVTVSSASTKGPSVFPLAPSSKSTSGGTAALGCLVKDYFPEPVTVSWNSGALTSGVHTFPAVLQSSGLYSLSSVVTVPSSSLGTQTYICNVNHKPSNTKVDKKVEPKSCDKTHTCPPCPAPEAAGGPSVFLFPPKPKDTLMISRTPEVTCVVVDVSHEDPEVKFNWYVDGVEVHNAKTKPREEQYASTYRVVSVLTVLHQDWLNGKEYKCKVSNKALPAPIEKTISKAKGQPREPQVYTLPPSRCELTKNQVSLSCAVKGFYPSDIAVEWESNGQPENNYKTTPPVLDSDGSFFLVSKLTVDKSRWQQGNVFSCSVMHEALHNHYTQKSLSLSPDYKDDDDK EPKSSDKTHTCPPCPAPELLGGPSVFLFPPKPKDTLMISRTPEVTCVVVDVSHEDPEVKFNWYVDGVEVHNAKTKPREEQYNSTYRVVSVLTVLHQDWLNGKEYKCKVSNKALPAPIEKTISKAKGQPREPQVCTLPPSRDELTKNQVSLWCLVKGFYPSDIAVEWESNGQPENNYKTTPPVLDSDGSFFLYSKLTVDKSRWQQGNVFSCSVMHEALHNRYTQKSLSLSP light: DIVMTQSPLSLPVTPGEPASISCRSSQSLVHSNRNTYLHWYQQKPGQAPRLLIYKVSNRFSGVPDRFSGSGSGTDFTLKISRVEAEDVGVYYCGQGTQVPYTFGQGTKLEIKRTVAAPSVFIFPPSDEQLKSGTASVVCLLNNFYPREAKVQWKVDNALQSGNSQESVTEQDSKDSTYSLSSTLTLSKADYEKHKVYACEVTHQGLSSPVTKSFNRGEC | 0.67

Next, values leading:

KD ratio (KD value of CE115HA000/KD value of the altered form) | Binder
0.97 | CE115HA000 Y100G one-arm antibody (antibody, human IgG1, kappa, L234A L235A, N297A, name in Kabat numbering, one-arm antibody) heavy: QVQLVESGGGVVQPGRSLRLSCAASGFTFSNAWMHWVRQAPGKGLEWVAQIKAKSNNYATYYAESVKGRFTISRDDSKNSLYLQMNSLKTEDTAVYYCRYVHYGAGYGVDAWGQGTTVTVSSASTKGPSVFPLAPSSKSTSGGTAALGCLVKDYFPEPVTVSWNSGALTSGVHTFPAVLQSSGLYSLSSVVTVPSSSLGTQTYICNVNHKPSNTKVDKKVEPKSCDKTHTCPPCPAPEAAGGPSVFLFPPKPKDTLMISRTPEVTCVVVDVSHEDPEVKFNWYVDGVEVHNAKTKPREEQYASTYRVVSVLTVLHQDWLNGKEYKCKVSNKALPAPIEKTISKAKGQPREPQVYTLPPSRCELTKNQVSLSCAVKGFYPSDIAVEWESNGQPENNYKTTPPVLDSDGSFFLVSKLTVDKSRWQQGNVFSCSVMHEALHNHYTQKSLSLSPDYKDDDDK EPKSSDKTHTCPPCPAPELLGGPSVFLFPPKPKDTLMISRTPEVTCVVVDVSHEDPEVKFNWYVDGVEVHNAKTKPREEQYNSTYRVVSVLTVLHQDWLNGKEYKCKVSNKALPAPIEKTISKAKGQPREPQVCTLPPSRDELTKNQVSLWCLVKGFYPSDIAVEWESNGQPENNYKTTPPVLDSDGSFFLYSKLTVDKSRWQQGNVFSCSVMHEALHNRYTQKSLSLSP light: DIVMTQSPLSLPVTPGEPASISCRSSQSLVHSNRNTYLHWYQQKPGQAPRLLIYKVSNRFSGVPDRFSGSGSGTDFTLKISRVEAEDVGVYYCGQGTQVPYTFGQGTKLEIKRTVAAPSVFIFPPSDEQLKSGTASVVCLLNNFYPREAKVQWKVDNALQSGNSQESVTEQDSKDSTYSLSSTLTLSKADYEKHKVYACEVTHQGLSSPVTKSFNRGEC
1.3 | CE115HA000 Y100P one-arm antibody (antibody, human IgG1, kappa, L234A L235A, N297A, name in Kabat numbering, one-arm antibody) heavy: QVQLVESGGGVVQPGRSLRLSCAASGFTFSNAWMHWVRQAPGKGLEWVAQIKAKSNNYATYYAESVKGRFTISRDDSKNSLYLQMNSLKTEDTAVYYCRYVHYGAPYGVDAWGQGTTVTVSSASTKGPSVFPLAPSSKSTSGGTAALGCLVKDYFPEPVTVSWNSGALTSGVHTFPAVLQSSGLYSLSSVVTVPSSSLGTQTYICNVNHKPSNTKVDKKVEPKSCDKTHTCPPCPAPEAAGGPSVFLFPPKPKDTLMISRTPEVTCVVVDVSHEDPEVKFNWYVDGVEVHNAKTKPREEQYASTYRVVSVLTVLHQDWLNGKEYKCKVSNKALPAPIEKTISKAKGQPREPQVYTLPPSRCELTKNQVSLSCAVKGFYPSDIAVEWESNGQPENNYKTTPPVLDSDGSFFLVSKLTVDKSRWQQGNVFSCSVMHEALHNHYTQKSLSLSPDYKDDDDK EPKSSDKTHTCPPCPAPELLGGPSVFLFPPKPKDTLMISRTPEVTCVVVDVSHEDPEVKFNWYVDGVEVHNAKTKPREEQYNSTYRVVSVLTVLHQDWLNGKEYKCKVSNKALPAPIEKTISKAKGQPREPQVCTLPPSRDELTKNQVSLWCLVKGFYPSDIAVEWESNGQPENNYKTTPPVLDSDGSFFLYSKLTVDKSRWQQGNVFSCSVMHEALHNRYTQKSLSLSP light: DIVMTQSPLSLPVTPGEPASISCRSSQSLVHSNRNTYLHWYQQKPGQAPRLLIYKVSNRFSGVPDRFSGSGSGTDFTLKISRVEAEDVGVYYCGQGTQVPYTFGQGTKLEIKRTVAAPSVFIFPPSDEQLKSGTASVVCLLNNFYPREAKVQWKVDNALQSGNSQESVTEQDSKDSTYSLSSTLTLSKADYEKHKVYACEVTHQGLSSPVTKSFNRGEC
0.77 | CE115HA000 Y100Q one-arm antibody (antibody, human IgG1, kappa, L234A L235A, N297A, name in Kabat numbering, one-arm antibody) heavy: QVQLVESGGGVVQPGRSLRLSCAASGFTFSNAWMHWVRQAPGKGLEWVAQIKAKSNNYATYYAESVKGRFTISRDDSKNSLYLQMNSLKTEDTAVYYCRYVHYGAQYGVDAWGQGTTVTVSSASTKGPSVFPLAPSSKSTSGGTAALGCLVKDYFPEPVTVSWNSGALTSGVHTFPAVLQSSGLYSLSSVVTVPSSSLGTQTYICNVNHKPSNTKVDKKVEPKSCDKTHTCPPCPAPEAAGGPSVFLFPPKPKDTLMISRTPEVTCVVVDVSHEDPEVKFNWYVDGVEVHNAKTKPREEQYASTYRVVSVLTVLHQDWLNGKEYKCKVSNKALPAPIEKTISKAKGQPREPQVYTLPPSRCELTKNQVSLSCAVKGFYPSDIAVEWESNGQPENNYKTTPPVLDSDGSFFLVSKLTVDKSRWQQGNVFSCSVMHEALHNHYTQKSLSLSPDYKDDDDK EPKSSDKTHTCPPCPAPELLGGPSVFLFPPKPKDTLMISRTPEVTCVVVDVSHEDPEVKFNWYVDGVEVHNAKTKPREEQYNSTYRVVSVLTVLHQDWLNGKEYKCKVSNKALPAPIEKTISKAKGQPREPQVCTLPPSRDELTKNQVSLWCLVKGFYPSDIAVEWESNGQPENNYKTTPPVLDSDGSFFLYSKLTVDKSRWQQGNVFSCSVMHEALHNRYTQKSLSLSP light: DIVMTQSPLSLPVTPGEPASISCRSSQSLVHSNRNTYLHWYQQKPGQAPRLLIYKVSNRFSGVPDRFSGSGSGTDFTLKISRVEAEDVGVYYCGQGTQVPYTFGQGTKLEIKRTVAAPSVFIFPPSDEQLKSGTASVVCLLNNFYPREAKVQWKVDNALQSGNSQESVTEQDSKDSTYSLSSTLTLSKADYEKHKVYACEVTHQGLSSPVTKSFNRGEC
